From IntAct's records for PubMed 23135401

Assays:
[1] = target: pcd15_mouse Pcdh15 (UniProt Q99PJ1)
[2] = target: Cdh23, Q99PF4-1
[3] = target: Cdh23, Q99PF4-1; remark: listed apart in the source

Chain of Cdh23, Q99PF4-1 (Q99PF4 whole entry): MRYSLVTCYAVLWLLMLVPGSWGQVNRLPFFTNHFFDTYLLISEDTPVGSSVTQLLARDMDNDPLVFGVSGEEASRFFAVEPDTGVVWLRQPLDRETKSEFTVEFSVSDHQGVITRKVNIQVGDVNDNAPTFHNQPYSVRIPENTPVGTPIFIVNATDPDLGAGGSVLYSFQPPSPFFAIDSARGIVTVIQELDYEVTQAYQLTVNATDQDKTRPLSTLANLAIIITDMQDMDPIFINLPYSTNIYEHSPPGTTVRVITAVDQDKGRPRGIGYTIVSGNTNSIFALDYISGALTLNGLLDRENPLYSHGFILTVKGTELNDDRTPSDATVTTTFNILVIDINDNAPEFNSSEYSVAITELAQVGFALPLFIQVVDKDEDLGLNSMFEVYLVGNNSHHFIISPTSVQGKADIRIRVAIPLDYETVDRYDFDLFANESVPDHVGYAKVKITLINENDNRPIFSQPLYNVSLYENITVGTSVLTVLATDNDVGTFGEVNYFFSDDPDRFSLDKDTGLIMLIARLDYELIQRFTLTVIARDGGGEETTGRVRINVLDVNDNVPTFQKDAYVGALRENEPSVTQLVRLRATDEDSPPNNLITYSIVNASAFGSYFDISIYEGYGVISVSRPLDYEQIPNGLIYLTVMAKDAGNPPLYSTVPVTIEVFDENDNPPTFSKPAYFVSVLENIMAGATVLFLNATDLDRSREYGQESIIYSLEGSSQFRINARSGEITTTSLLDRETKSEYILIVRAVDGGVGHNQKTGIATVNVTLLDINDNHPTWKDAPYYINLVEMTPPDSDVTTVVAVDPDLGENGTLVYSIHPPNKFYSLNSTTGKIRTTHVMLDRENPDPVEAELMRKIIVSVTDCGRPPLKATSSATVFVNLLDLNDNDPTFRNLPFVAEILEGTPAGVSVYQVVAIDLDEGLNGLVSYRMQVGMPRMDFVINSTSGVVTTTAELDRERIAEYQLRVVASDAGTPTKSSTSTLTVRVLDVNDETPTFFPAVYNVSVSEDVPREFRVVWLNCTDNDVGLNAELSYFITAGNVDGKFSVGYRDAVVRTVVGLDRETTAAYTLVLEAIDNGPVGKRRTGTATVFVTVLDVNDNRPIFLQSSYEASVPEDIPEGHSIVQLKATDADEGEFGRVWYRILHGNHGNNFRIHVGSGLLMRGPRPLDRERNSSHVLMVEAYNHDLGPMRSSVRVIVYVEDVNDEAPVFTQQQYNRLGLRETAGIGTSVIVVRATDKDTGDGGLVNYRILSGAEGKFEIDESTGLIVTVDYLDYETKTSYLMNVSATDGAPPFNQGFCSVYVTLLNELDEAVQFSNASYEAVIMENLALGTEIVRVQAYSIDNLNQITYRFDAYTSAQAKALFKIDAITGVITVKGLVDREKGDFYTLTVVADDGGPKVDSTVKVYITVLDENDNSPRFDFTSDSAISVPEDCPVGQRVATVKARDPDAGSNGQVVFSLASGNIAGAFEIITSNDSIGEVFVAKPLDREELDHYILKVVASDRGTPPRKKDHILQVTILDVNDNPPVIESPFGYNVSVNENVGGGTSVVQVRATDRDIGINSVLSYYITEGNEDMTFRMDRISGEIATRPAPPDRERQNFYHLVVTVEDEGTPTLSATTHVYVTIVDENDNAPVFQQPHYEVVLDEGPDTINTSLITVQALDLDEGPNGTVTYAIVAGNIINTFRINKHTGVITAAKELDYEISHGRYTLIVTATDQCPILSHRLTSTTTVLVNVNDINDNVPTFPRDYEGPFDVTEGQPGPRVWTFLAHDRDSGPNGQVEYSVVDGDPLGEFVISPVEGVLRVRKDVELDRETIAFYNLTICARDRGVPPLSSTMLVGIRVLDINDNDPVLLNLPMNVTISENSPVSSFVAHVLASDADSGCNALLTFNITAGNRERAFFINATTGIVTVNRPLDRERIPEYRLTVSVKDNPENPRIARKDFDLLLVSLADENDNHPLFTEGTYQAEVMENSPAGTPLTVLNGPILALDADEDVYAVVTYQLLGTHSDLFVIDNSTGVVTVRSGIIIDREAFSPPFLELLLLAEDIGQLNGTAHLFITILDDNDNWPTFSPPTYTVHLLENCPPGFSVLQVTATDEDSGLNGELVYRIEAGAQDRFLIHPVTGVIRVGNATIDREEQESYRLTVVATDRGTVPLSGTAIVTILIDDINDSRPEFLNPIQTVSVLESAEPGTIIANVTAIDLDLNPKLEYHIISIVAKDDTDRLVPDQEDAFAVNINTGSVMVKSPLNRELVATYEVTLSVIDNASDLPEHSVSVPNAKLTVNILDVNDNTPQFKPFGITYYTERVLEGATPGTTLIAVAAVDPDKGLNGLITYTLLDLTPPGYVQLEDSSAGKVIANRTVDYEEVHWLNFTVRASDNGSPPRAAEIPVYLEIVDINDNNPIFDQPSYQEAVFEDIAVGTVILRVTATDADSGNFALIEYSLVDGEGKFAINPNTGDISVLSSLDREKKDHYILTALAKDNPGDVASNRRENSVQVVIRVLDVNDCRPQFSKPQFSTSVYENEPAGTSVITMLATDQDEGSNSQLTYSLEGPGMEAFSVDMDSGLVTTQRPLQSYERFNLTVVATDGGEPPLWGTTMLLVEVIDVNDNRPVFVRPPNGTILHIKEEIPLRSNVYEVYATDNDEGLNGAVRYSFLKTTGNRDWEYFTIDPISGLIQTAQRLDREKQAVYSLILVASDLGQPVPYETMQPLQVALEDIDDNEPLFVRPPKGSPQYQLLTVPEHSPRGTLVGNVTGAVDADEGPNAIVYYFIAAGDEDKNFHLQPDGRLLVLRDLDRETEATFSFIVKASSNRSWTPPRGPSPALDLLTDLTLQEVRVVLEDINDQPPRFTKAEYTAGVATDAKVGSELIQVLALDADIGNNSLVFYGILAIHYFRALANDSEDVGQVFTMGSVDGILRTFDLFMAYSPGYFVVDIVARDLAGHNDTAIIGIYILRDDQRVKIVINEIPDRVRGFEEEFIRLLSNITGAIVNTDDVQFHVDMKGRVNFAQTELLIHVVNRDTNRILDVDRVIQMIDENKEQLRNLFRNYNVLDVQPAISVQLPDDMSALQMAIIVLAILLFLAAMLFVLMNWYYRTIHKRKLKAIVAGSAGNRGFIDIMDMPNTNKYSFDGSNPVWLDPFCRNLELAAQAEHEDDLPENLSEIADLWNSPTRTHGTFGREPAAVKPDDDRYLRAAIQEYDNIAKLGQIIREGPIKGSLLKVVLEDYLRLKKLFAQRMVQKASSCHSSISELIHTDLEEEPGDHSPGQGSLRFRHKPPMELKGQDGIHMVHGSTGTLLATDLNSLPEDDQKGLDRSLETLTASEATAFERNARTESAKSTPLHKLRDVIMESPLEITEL

Substance | effect of a mutation on the interaction [1] | effect of a mutation on the interaction [2] | effect of a mutation on the interaction [3]
Cadherin-23 (Mus musculus), Q99PF4-1 D124G | decreasing interaction strength |  | 
Cadherin-23 (Mus musculus), Q99PF4-1 L168G | decreasing interaction strength |  | 
Protocadherin-15 (Mus musculus), Q99PJ1 I48A |  | decreasing interaction strength | 
Protocadherin-15 (Mus musculus), Q99PJ1 R139G |  | decreasing interaction strength | disrupting interaction strength
